Drawing on publication doi:10.1101/2025.10.08.681152 (bioRxiv, 2025), this text covers Kd, koff and kon for 1 molecule.

The target of the assay is EGFP, C-terminally biotinylated (Aequorea victoria GFP, engineered EGFP …, biotin on the C-terminal biotin acceptor peptide). Kind of assay: BLI. For orientation: In BLI a coated tip is dipped into the sample, and binding shifts an interference pattern.

B1: GBP* (engineered GFP-Binding Protein, unconjugated) (VHH)
VHH: QVQLVESGGALVQPGGSLRLSCAASGFPVNRYSMRWYRQAPGREREWVAGMSSAGDRSSYEDSVRGRFTISRDDARNTVYLQMNSLRPEDTAVYYCNVNVGFEYWGQGTQVTVSS
B1 returned a Kd of 0.75 nM, a koff of 7.1e-05 s⁻¹ and a kon of 94000 M⁻¹ s⁻¹.

As a reminder, the Kd is the equilibrium constant for the complex coming apart. Low values mean tighter binding, high ones weaker binding. In general, koff refers to a measure of how fast the partners let go of each other. By kon is commonly meant the second-order rate constant of association. Read a high kon as fast association.
